Measured values: patent US20240043542A1 (published 2024)
Like-named read-outs stand apart in the source and are kept apart here.

T1: human B7-H4 on the cell surface (human, UniProt Q7Z7D3 25-282)
T1 construct: full-length human B7-H4 on transfected HEK293T cells or endogenous on SK-BR-3 cells; also called SK-BR-3 (endogenous human B7-H4)
T1 sequence: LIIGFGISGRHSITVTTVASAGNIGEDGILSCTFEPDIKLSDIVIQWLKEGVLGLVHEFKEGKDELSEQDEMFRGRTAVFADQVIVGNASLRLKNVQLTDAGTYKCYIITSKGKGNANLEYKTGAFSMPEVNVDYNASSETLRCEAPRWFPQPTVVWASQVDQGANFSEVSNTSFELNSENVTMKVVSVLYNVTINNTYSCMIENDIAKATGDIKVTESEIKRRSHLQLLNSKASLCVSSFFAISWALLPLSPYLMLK

T2: cynomolgus monkey B7-H4 on the cell surface (cynomolgus monkey, UniProt Q7Z7D3 25-282 (human entry))
T2 construct: full-length, on transfected HEK293T cells
T2 chain: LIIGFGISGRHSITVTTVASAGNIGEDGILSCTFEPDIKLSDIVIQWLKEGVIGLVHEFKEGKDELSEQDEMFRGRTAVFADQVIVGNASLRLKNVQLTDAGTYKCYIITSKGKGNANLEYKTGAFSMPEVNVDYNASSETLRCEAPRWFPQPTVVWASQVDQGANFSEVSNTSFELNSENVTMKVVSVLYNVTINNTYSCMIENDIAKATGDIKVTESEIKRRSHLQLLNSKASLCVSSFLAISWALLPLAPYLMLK

T3: mouse B7-H4 on the cell surface (mouse, UniProt Q7TSP5 25-257)
T3 construct: full-length, on transfected HEK293T cells
T3 sequence: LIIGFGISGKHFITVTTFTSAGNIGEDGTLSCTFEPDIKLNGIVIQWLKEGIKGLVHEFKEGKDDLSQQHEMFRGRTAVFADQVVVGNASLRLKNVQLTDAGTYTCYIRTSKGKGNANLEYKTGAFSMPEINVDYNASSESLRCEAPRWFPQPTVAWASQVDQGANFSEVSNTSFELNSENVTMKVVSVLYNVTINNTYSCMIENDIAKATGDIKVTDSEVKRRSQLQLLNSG

T4: rat B7-H4 on the cell surface (rat, UniProt Q501W4 25-257)
T4 construct: full-length, on transfected HEK293T cells
T4 sequence: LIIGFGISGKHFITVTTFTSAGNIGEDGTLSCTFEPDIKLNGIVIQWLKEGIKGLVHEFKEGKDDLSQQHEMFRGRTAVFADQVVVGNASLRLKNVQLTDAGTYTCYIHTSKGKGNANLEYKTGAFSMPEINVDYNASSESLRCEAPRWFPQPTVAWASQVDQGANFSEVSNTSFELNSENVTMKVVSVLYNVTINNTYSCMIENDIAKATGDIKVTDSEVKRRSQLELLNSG

T5: mouse B7-H4 (recombinant, BLI) (mouse, UniProt Q7TSP5 29-256, limits assumed)
T5 construct: also called murine B7-H4
T5 sequence: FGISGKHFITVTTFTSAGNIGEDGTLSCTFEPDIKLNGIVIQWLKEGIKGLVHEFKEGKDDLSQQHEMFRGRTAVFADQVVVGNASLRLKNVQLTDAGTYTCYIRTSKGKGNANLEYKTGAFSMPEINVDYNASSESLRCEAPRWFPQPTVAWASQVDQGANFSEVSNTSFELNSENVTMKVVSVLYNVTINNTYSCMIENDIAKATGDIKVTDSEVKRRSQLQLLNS

T6: cynomolgus monkey B7-H4 (recombinant, BLI) (cynomolgus monkey, UniProt Q7Z7D3 25-259 (human entry))
T6 construct: also called Cynomolgus B7-H4
T6 sequence: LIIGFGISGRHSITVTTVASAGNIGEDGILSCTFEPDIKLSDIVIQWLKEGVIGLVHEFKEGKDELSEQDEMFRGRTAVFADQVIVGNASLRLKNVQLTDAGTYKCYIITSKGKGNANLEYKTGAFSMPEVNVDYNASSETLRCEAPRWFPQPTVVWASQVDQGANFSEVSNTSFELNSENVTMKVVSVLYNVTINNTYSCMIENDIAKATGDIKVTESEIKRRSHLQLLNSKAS


What was measured:
[1] = molecular target: T1, human B7-H4 on the cell surface; assay: flow cytometry, SK-BR-3 cells
Description: (§1) Following incubation, cells were pelleted, washed and incubated with a secondary labeling antibody and samples were acquired on a flow cytometer. Data was analyzed using the FlowJo software and MFI was plotted vs. antibody concentration. The EC50 cell binding potency was calculated using nonlinear regression curve fit (GraphPad Prism).

[2] = molecular target: T2, cynomolgus monkey B7-H4 on the cell …; assay: flow cytometry, 100 nM, transfected HEK293T
Description: (§2) HEK293T cell lines were transfected to express full-length human, cynomolgus monkey, mouse, or rat B7-H4. In addition, the endogenous human B7-H4 expressing SK-BR-3 breast cancer cell line was used to assess the ability of the antibodies to bind B7-H4 expressed on the cell surface. 1×10⁵ parental HEK293T or transfected HEK293T cell lines were incubated with 100 nM of the B7-H4 antibodies. Following incubation, cells were pelleted, washed, and incubated with a secondary labeling antibody, and samples were acquired on a flow cytometer. Fold binding over the parental cell line (FOP) was calculated as follows: MFI transfected HKE293T cells/MFI parental HEK293T cells.

[3] = molecular target: T3, mouse B7-H4 on the cell surface; assay: flow cytometry, 100 nM, transfected HEK293T
Description: as §2

[4] = molecular target: T1, human B7-H4 on the cell surface; assay: flow cytometry, 100 nM, transfected HEK293T
Description: as §2

[5] = molecular target: T2, cynomolgus monkey B7-H4 on the cell …; assay: flow cytometry, transfected 293 cells
Description: as §1

[6] = molecular target: T3, mouse B7-H4 on the cell surface; assay: flow cytometry, transfected 293 cells
Description: as §1

[7] = molecular target: T4, rat B7-H4 on the cell surface; assay: flow cytometry, transfected 293 cells
Description: as §1

[8] = molecular target: T1, human B7-H4 on the cell surface; assay: cell-based or functional assay
[9] = molecular target: T7, recombinant human B7-H4-huIgG1 (human); assay: BLI, antigen on Protein A tips;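 also: Anti-B7-H4 antibodies assessed for affinity toward the B7-H4 extracellular domain using biolayer interferometry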
T7 construct: also called B7-H4-extracellular domain (ECD)
Description: (§3) Binding affinities of anti-B7-H4 antibodies to B7-H4-extracellular domain (ECD) were determined by biolayer interferometry (BLI). […] Anti-B7-H4 antibodies were then evaluated for binding.

[10] = molecular target: T5, mouse B7-H4 (recombinant, BLI); assay: BLI, antigen on Protein A tips;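 also: Anti-B7-H4 antibodies assessed for affinity toward the B7-H4 extracellular domain using biolayer interferometry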
Description: as §3

[11] = molecular target: T6, cynomolgus monkey B7-H4 (recombinant, …); assay: BLI, antigen on Protein A tips;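 also: Anti-B7-H4 antibodies assessed for affinity toward the B7-H4 extracellular domain using biolayer interferometry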
Description: as §3

B7-H4 IgV-huIgG1 = molecular target: T8, B7-H4 IgV-huIgG1 (human); assay: SPR, antibody captured by anti-human Fab, antigen in flow
T8 construct: also called N-terminal domain of human B7-H4
Description: Briefly, anti-human Fab antibody was immobilized on a carboxyl-derivatized SPR chip surface, and anti-B7-H4 antibodies were captured on the resulting surface at 5 ug/ml for 30 seconds.

[12] = molecular target: T1, human B7-H4 on the cell surface; assay: cell-based or functional assay; remark: listed apart in the source

Binder	EC50 [1] [nM]	FOP (fold binding over the parental cell line) [2] [fold]	FOP (fold binding over the parental cell line) [3] [fold]	FOP (fold binding over the parental cell line) [4] [fold]	EC50 [5] [nM]	EC50 [6] [nM]	Donor 1 Max IFNγ [8] [pg/mL]	Kd [9] [nM]	koff [9] [s⁻¹]	kon [9] [M⁻¹ s⁻¹]	Kd [10] [nM]	koff [10] [s⁻¹]	kon [10] [M⁻¹ s⁻¹]	Kd [11] [nM]	koff [11] [s⁻¹]	kon [11] [M⁻¹ s⁻¹]	Kd (B7-H4 IgV-huIgG1) [nM]	further results
B7-H4 antibody 20500 (antibody, human IgG1, kappa, V domains shown, human IgG1/kappa) VH: QLQLQESGPGLVKPSETLSLTCTVSGGSIKSGSHYWGWIRQPPGKGLEWIGNIYYSGSTYYNPSLRSRVTISVDTSKNQFSLKLSSVTAADTAVYYCAREGSYPNWFDPWGQGTLVTVSS VL: EIVMTQSPATLSVSPGERATLSCRASQSVSSNLAWYQQKPGQAPRLLIYGASTRATGIPARFSGSGSGTEFTLTISSLQSEDFAVYYCQQYHSFPFTFGGGTKVEIKR	1.54	630	478	182	3.38	4	821	5.97	0.00233	391000	8.25	0.00336	408000	5.47	0.00229	418000		EC50 [7]: 1.14 nM; Donor 2 Max IFNγ [8]: 274 pg/mL; Donor 3 Max IFNγ [8]: 118 pg/mL; Donor 4 Max IFNγ [8]: 4030 pg/mL; aAPC Assay EC50 (IFNγ production) [8]: 0.84 nM
B7-H4 antibody 20501 (antibody, human IgG1, kappa, V domains shown, human IgG1/kappa) VH: QLQLQESGPGLVKPSETLSLTCTVSGGSIKSGSHYWGWIRQPPGKGLEWIGNIYYSGSTYYNPSLKSRVTISVDTSKNQFSLKLSSVTAADTAVYYCAREGSYPNWLDPWGQGTLVTVSS VL: EIVMTQSPATLSVSPGERATLSCRASQSVSSNLAWYQQKPGQAPRLLIYGASTRATGIPARFSGSGSGTEFTLTISSLQSEDFAVYYCQQYHSFPFTFGGGTKVEIKR	1.9	728	546	205	3.89	4.67	850	2.56	0.00251	980000	3.35	0.00375	1.12e+06	2.42	0.00246	1.02e+06		EC50 [7]: 1.15 nM; Donor 2 Max IFNγ [8]: 310 pg/mL; Donor 3 Max IFNγ [8]: 136 pg/mL; Donor 4 Max IFNγ [8]: 4490 pg/mL; aAPC Assay EC50 (IFNγ production) [8]: 0.79 nM
B7-H4 antibody 20502 (antibody, V domains shown, human IgG1/kappa) VH: QLQLQESGPGLVKPSETLSLTCTVSGGSIKSGSYYWGWIRQPPGKGLEWIGNIYYSGSTYYNPSLRSRVTISVDTSKNQFSLKLSSVTAADTAVYYCAREGSYPNQFDPWGQGTLVTVSS VL: EIVMTQSPATLSVSPGERATLSCRASQSVSSNLAWYQQKPGQAPRLLIYGASTRATGIPARFSGSGSGTEFTLTISSLQSEDFAVYYCQQYHSFPFTFGGGTKVEIKR								1.2	0.00115	936000	3.4	0.00213	632000	1.2	0.00112	962000	2.03	koff (B7-H4 IgV-huIgG1): 0.000361 s⁻¹; kon (B7-H4 IgV-huIgG1): 178000 M⁻¹ s⁻¹
B7-H4 antibody 15483 (antibody, human IgG1, kappa, V domains shown, human IgG1/kappa) VH: QVQLQESGPGLVKPSQTLSLTCTVSGGSISSGGYYWSWIRQHPGKGLEWIGNIYYSGSTYYNPSLKSRVTISVDTSKNQFSLKLSSVTAADTAVYYCARGLSTIDEAFDPWGQGTLVTVSS VL: not shown	14.8					8.82					263			108			18.4	Donor 1 Max IFNγ [12]: 93.2 pg/mL; Donor 2 Max IFNγ [12]: 87.8 pg/mL; Donor 3 Max IFNγ [12]: 1380 pg/mL; Donor 4 Max IFNγ [12]: 939 pg/mL; aAPC Assay EC50 (IFNγ production) [12]: 729 nM
B7-H4 antibody 15489 (antibody, human IgG1, kappa, V domains shown, human IgG1/kappa) VH: QVQLQESGPGLVKPSETLSLTCTVSGGSISSYYWSWIRQPPGKGLEWIGYIYSSGSTNYNPSLKSRVTISVDTSKNQFSLKLSSVTAADTAVYYCARGSGQYAAPDYGMDVWGQGTTVTVSS VL: DIQMTQSPSTLSASVGDRVTITCRASQSISSWLAWYQQKPGKAPKLLIYKASSLESGVPSRFSGSGSGTEFTLTISSLQPDDFATYYCQQDNSFPFTFGGGTKVEIKR	31.7					17.5		63.7			201			72.1			23.7	Donor 1 Max IFNγ [12]: 82.5 pg/mL; Donor 2 Max IFNγ [12]: 96.6 pg/mL; Donor 3 Max IFNγ [12]: 1130 pg/mL; Donor 4 Max IFNγ [12]: 800 pg/mL; aAPC Assay EC50 (IFNγ production) [12]: 291 nM
B7-H4 antibody 20496 (antibody, human IgG1, kappa, V domains shown, human IgG1/kappa) VH: QLQLQESGPGLVKPSETLSLTCTVSGGSISSSVYYWSWIRQPPGKGLEWIGSILVSGSTYYNPSLKSRVTISVDTSKNQFSLKLSSVTAADTAVYYCARAVSFLDVWGQGTMVIVSS VL: DIQMTQSPSSLSASVGDRVTITCRASQSISSYLNWYQQKPGKAPKLLIYGASSLQSGVPSRFSGSGSGTDFTLTISSLQPEDFATYYCQQSYDPPWTFGGGTKVEIKR	7.6	758	604	179	7.91	6.7	186	0.805	0.000555	689000	24.6	0.0171	692000	0.721	0.000569	790000		
B7-H4 antibody 15472 (antibody, human IgG1, kappa, V domains shown, human IgG1/kappa) VH: EVQLLESGGGLVQPGGSLRLSCAASGFTFSSYAMSWVRQAPGKGLEWVSTISGSGGSTYYADSVKGRFTISRDNSKNTLYLQMNSLRAEDTAVYYCARGAGHYDLVGRYWGQGTLVTVSS VL: not shown	8.86	1280	685	580				7.11	0.00497	700000	38	0.016	422000	7.8	0.00582	746000		
